{"source": "the nanobody polyreactivity screen of Harvey et al. (2022)"}
{"experiment": "yeast display, Sf9 membrane polyspecificity reagent, FACS + sequencing; frameworks hold sequencing errors", "how_it_was_run": "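Sorting gates, low and high (top ~1%), were placed on anti-HA fluorescence to track expression and on streptavidin fluorescence to track reagent binding. A clone's polyreactivity label is taken from the gate it came out of. The reagent was 10% biotinylated, detergent-solubilized Sf9 membrane, applied for 1 hour at 4 °C to galactose-induced yeast display cells.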"}
{"sequence": "QVQLVESGGGLVQAGGSLRLSCAASGFTFVNYVMGWYRQAHGKERELVAAISRSGGSTYYADSVKGRFTISRDNAKNTVYLQMNSLKPEDTAVYYCAARWFYRAGFNYWGQGTQVTVSS", "polyreactivity (PSR sort gate)": "high polyreactivity"}
{"sequence": "QVQLVESGGGLVQAGGSLRLSCAASGITFSGNAMGWYRQAPGKEREFVAAITFSGGRTYYADSVKGRFTISRDNAKNTVYLQMNSLKPEDTAVYFCAAETPRGRWLGDYWGQGTQVTVSA", "polyreactivity (PSR sort gate)": "low polyreactivity"}
{"sequence": "QVQLVESGGGLVQAGGSLRLSCAASGSIFHHNAMGWYRQAPGKERELVAAISSRSGNTYYADSVKGRFTISRDNAKNTVYLQMNSLKPEDTAVYYCAKAFRGHYWGQGTQVTVSS", "polyreactivity (PSR sort gate)": "high polyreactivity"}
{"sequence": "QVQLVESGGGLVQAGGSLRLSCAASGSISYRYVMGWYRQAPGKERELVAAITTSGGSTYYADSVKGRFTISRDNAKNTVYLQMNSLKPEDTAVYDCAAKHNVYRYSRYYWGQGTQVTVSS", "polyreactivity (PSR sort gate)": "high polyreactivity"}
{"sequence": "QVQLVESGGGLVQAGGSLRLSCAASGSIFGYNVMGWYRQAPGKEREFVAAITYRGGGTYADSVKGRFTISRDNAKNTVYLQMNSLKPEDTAVYYCAARWYGWRSRRYDYWGQGTQVTVSS", "polyreactivity (PSR sort gate)": "high polyreactivity"}
{"sequence": "QVQLVESGGGLVQAGVSLRLSCAASGFISPKYGMGWYRQAPGKERELVAAITSSGGSTYYADSVKGRFTISRDNAKNTVYLQMNSLKPEDTAVYYCATRQVSRLYPYRYNYWGQGTQVTVSS", "polyreactivity (PSR sort gate)": "high polyreactivity"}
{"sequence": "HVQLVESGGGLVQAGGSLRLSCAASGSICSWYGMGWYRQAPGKERELVAAITWTGGSTYYADSVKGRFTISRDNAKNTVYLQMNSLKQEDTAVYYCSADLRYVGFYYWGQGTQVTVSS", "polyreactivity (PSR sort gate)": "high polyreactivity"}
{"sequence": "QVQLVESGGGLVQAGGSLRLSCAASGRIFYYYAMGWYRQAPGKEREFVAAITGRGGSTYYADSVKGRFTISRDNAKNTVYLQMNSLKPEDTAVYYCNAGQYFEYYGWYSRYGYWGQGTQVTVSS", "polyreactivity (PSR sort gate)": "low polyreactivity"}
{"sequence": "QVQLVESGGGLVQAGGSLRVSCAASGLTFRFYAMGWYRQAPGKERELVAAISTSGGSTYYADSVKGRFTISRDNAMNTVYLQMNSLKPEDTAVYYCAARARYYHSRYDYWGQGTQVTVSS", "polyreactivity (PSR sort gate)": "high polyreactivity"}
{"sequence": "QVQLVESGGGLVQAGGSLRLSSDASGSIFTAYSIGWYRQAPGKERELVADITQSAGSTYADSVKGRFTISRDNAKNTVYLQMNSLKPADTAVYYCAARYRYPYYARYGYWGQGTQVTVSS", "polyreactivity (PSR sort gate)": "high polyreactivity"}
{"sequence": "QVQLVESGGGLVQAGGSLRLSCAASGFIFSAYVMGWYRQAPGKERELVAAISQSGARTYYADSVKGRFTISRDNAKNTVYLQMNSLKPEDTAVYYCAADRRDFRTYDYWGQGTQVTVSS", "polyreactivity (PSR sort gate)": "high polyreactivity"}
{"sequence": "QVQLVESGGGLVQAGGSLRLSCAASGFTRIYAMGWYRQAPGKERELVAAISQRGGRTYYADSVKGRFTISRDNAKNTVYLQMNSLKPEDTAVYYCAVRGPYQGRTRYYYWGQGTQVTVSS", "polyreactivity (PSR sort gate)": "high polyreactivity"}
{"sequence": "QVQLVESGGGLVQAGGSLRLSCAASGFTFFWYAMGWSRQAPGKERELVAGITYRGGSTYYADSVKGRFTISRDNAKNTVYLQMNSLKPEDTAVYYCNADVVTKHISAWWDRYYRRYYYWGQGTQVTVSS", "polyreactivity (PSR sort gate)": "low polyreactivity"}
{"sequence": "QVQLLESGGGLVQAGGSLRLSCAASGRNFGVNAMGWYRQAPGKERELVAVISSGGSTYYADSVKGRFTISRDNAKNTVFLQMNSLKPEDTAVYYCAAGNLPDYDYWGQGTQVTVSS", "polyreactivity (PSR sort gate)": "low polyreactivity"}
{"sequence": "QVQLVDSGGGLVQAGGSLRLSCAASGSNFDDYAMGWYRQAPGKERELVAAISSSGTSTYYADSVKGRFTISRDNAKNTVYLQMNSLKPEDTAVYYCAAKKKYHYVASYKRFEYWGQGTQVTVSS", "polyreactivity (PSR sort gate)": "low polyreactivity"}
{"sequence": "QVQLVESGGGLVQAGGSLRLSCAASGRTFGLNAMGWYRQAPGKERELVAAISSSGGSTYYADSVKGRFTISRDNAKNTVYLQMNSLKPEDTAVYYCAKVLYRYGTAYYYWGQGTQVTVSS", "polyreactivity (PSR sort gate)": "high polyreactivity"}
{"sequence": "QVQLVESGGGLVQAGGSLRLSCAASGSIFIYNAMGWYRQAPGKERELVAAISSSGGSTYYADSVKGRFTISRDNAKNTVYLQMNSLKPEDTAVYYCAARTYYVRGLGGRPGMDYCGQGTQVTVSS", "polyreactivity (PSR sort gate)": "low polyreactivity"}
{"sequence": "QVQLVESGRGLVQAGGSLRLSCAASGITFGYYDMGWYRQAPGKERELVAAIDWTGGGTYYADSVKGRFTISRDYAKNTVYLQMNSVKPVDTAVYYCIDHAGGDSGVSYYPEYDYWGQGTQVTLSS", "polyreactivity (PSR sort gate)": "low polyreactivity"}
{"sequence": "QVQLVESGGGLVQAGGSLRLSCAASGSNFRVYAMGWYRQAPGKESELVAAIDSGTSTTYADSVKGRFTISRDNAKNTVYLQMNSLKPEDTAVYYCAADGWLWSFTGDGWWFDYWGQGTQVTVSS", "polyreactivity (PSR sort gate)": "low polyreactivity"}
{"sequence": "QVQLVESGGGLVQAGGSLRLSCAASGRIYFNAMGWYRQAPGKERELLADISWIGGSTYYADSVKGRFTISRDNGKNTVYLQMNRLKPEYTAVYYCAAVFLSWWDSYDFWGQGTQVTVSS", "polyreactivity (PSR sort gate)": "high polyreactivity"}
{"sequence": "QVQLVESGGGLVQAGGSLRLSCAASGRTFDLNDMGWYRQAPGKEREFVADIDWSGGNTYYADSVKGRFIISRDNAKNTVYLQMNSLKPEDTAVYYCNARRKRSYDYWGQGTQVTVSS", "polyreactivity (PSR sort gate)": "low polyreactivity"}
{"sequence": "QVQLEESGRGLVQAGGSLRLSCAASGSTFWSYAMGWYRQAPGKERELVATITRAGTTNYADSVKGRFTISRDNAKNTVYLQMNSLKPVDTAVFYCATRRPIYVRAYDYWGQGTQVTVSS", "polyreactivity (PSR sort gate)": "high polyreactivity"}
{"sequence": "QVQLVESGGGLVQAGGSLRLSCAASGRIFVPYVMGWYRQAPGKERELVAAISSSGGSTYYADSVKGRFTISRDNAKNTVYLQMNSLKQEDTAVYYCAKPYYFHEEDHWGQGSQVTVSS", "polyreactivity (PSR sort gate)": "low polyreactivity"}
{"sequence": "QVQLVESGGGLVQAGGSLRLSCAASGRIFQQYAMGWYRQAPGKEREVVAAISRGGSTYYADSVKGRFTISRDNAKNTVYLQMNSLKPEDTAVYYCAVRSRRGLKYDYWGQGTQVTVSS", "polyreactivity (PSR sort gate)": "high polyreactivity"}
{"sequence": "QVQLVESGGGLVQAGGSHRLSCAASGSTFTKNAMGWYRQAPGKERELVATISSGGYTNYADSVKGRFTISRDNAKNSVYLQMNSLKPEDTAVYYCNAVYRYRTRREYGYWGQGTQVTVSS", "polyreactivity (PSR sort gate)": "high polyreactivity"}
{"sequence": "QVQLVESGGGLVQAGGSLRLSCAASGLIFLDYAMGWYRQAPGKERELVAAISRSGGRTYYADSVKGRFTISGDNAKNTVYLQMNSLKPEDTAVYYCAADGSRKSEIYDYWGQGTQVTVSS", "polyreactivity (PSR sort gate)": "high polyreactivity"}
{"sequence": "QVQLVESGGGLVQAGGSLRLSCAASGSIFYWYAMGWYRQAPGKERELVAAITYSGDRTYYADSVKGRFTISRDNAKNTVYLQMNSLKPEDTAVYYCAKDRGSGPLDYWGQGTQVTVSS", "polyreactivity (PSR sort gate)": "low polyreactivity"}
{"sequence": "QVQLVESGGGLVQAGGSLRLSCAASGRIYGVYVMGWSRQAPGKERELVAAISWGGGTYYADSVKGRFTISRDNSKNTVTLKMNSLKPEDTAVYYCNAESYYTMYYWGQGTQVTVSS", "polyreactivity (PSR sort gate)": "low polyreactivity"}
{"sequence": "QVQLVESGGGLVQAGGILRLSCAASGSIVSYYDMGWYRQAPGKERELVAAITYTGGSTYYADSVKGRFTISRDNAKNTVYLQMNSLKPEDTEVYYCAAQWTIYPLFNSWGQGNQVTVSS", "polyreactivity (PSR sort gate)": "low polyreactivity"}
{"sequence": "QVQLVESGGGLVQAGGSLRLSCAASGRIFSYYAMGWYRQAPGKERELVAAIRWSGGRTYYADSVKGRFTISRDNAKNTVYLQMNSLKPEDTAVYYCAAEGAYRLAYDYWGQGTQVTVSS", "polyreactivity (PSR sort gate)": "high polyreactivity"}
{"sequence": "QVQLLESGGGLVQAGGSLRLSCAASGLTIWRYAMGWYRQAPGKEREFVATISHNGGRTYYADSVKGRFTISRDNAKNSVYLQMNSLKPEDTAVYYCAADDWRWGYDYWGQGTQVTVSS", "polyreactivity (PSR sort gate)": "high polyreactivity"}
{"sequence": "QVQLVESGGGLVQAGGSLRLSCAASGRIFFTNDMGWYRQAPGKERELVATITGNGASTFYADSVKGRFTISRDNAKNTVYLQMNSLKPEDSAVYYCNADRSSYPRYDYWGQGTLVTVSS", "polyreactivity (PSR sort gate)": "low polyreactivity"}
{"sequence": "QVQLVESGGGLVQAGGSLRLSCAASGSIFPQYAMGWYRQAPGKERELVAGISGSGGGTYYADSVKGRFTISRDNAKNTVYLQMNSLKPEDTAVYDCYDYWGQGTQVTVSS", "polyreactivity (PSR sort gate)": "low polyreactivity"}
{"sequence": "QVQLVESGGGLVQAGGSLRLSCAASGSIFKGYAMGWYRQAPGKERELVAAISSSGGSTYYADSVKGRFTISRDNAKNTVYLQMNSLKPEDTAVYYCNTDRYYTYDYWGQGTQVTVSS", "polyreactivity (PSR sort gate)": "low polyreactivity"}
{"sequence": "QVQLVESGGGLVQAGGSLRLSCASSGRTFNPYAMGWYRQAPGKERELVAAISRSGGGTYYADSVKGRCTISRDNAKNTVYLQMNSLKPEDTAVYYCNADRATCWEQWWYDNWGQGTQVTVSS", "polyreactivity (PSR sort gate)": "low polyreactivity"}
{"sequence": "QVQLVESGGGLVQAGGSLRLSCAASGLIFSGYTMGWYRQAPGKERELVAAISKSGGNTYYADSVTGRFTISRDNAKNTVYLQMNSLKPEDTAVYYCNRDVTYYRGYDYWGQGTQVTVSS", "polyreactivity (PSR sort gate)": "high polyreactivity"}
{"sequence": "QVQLVESGGGLVQAGGSLRLSCAASGRIILDYAMGWYRQAPGKERELVAAITWRGGSTNYADSVKGRFTISRDNAKNTVYLQMNSLKPEDTAVYYCNADPDDQYDYWGQGTQVTVSS", "polyreactivity (PSR sort gate)": "low polyreactivity"}
{"sequence": "QVQLVESGGGLVQAGGSLRLSCAASGRIFRINAMGWYRQAPGKERELVASISRRGGNTYYADSVKGRFTISRDNAKNTVYLQMNSLKPEDTAVYYCAADTNQERTFYYWGQGTQVTVSS", "polyreactivity (PSR sort gate)": "low polyreactivity"}
{"sequence": "QVQLVESGGGLVQAGGSLRLSCAASGLTFWGNAMGWYRQAPGKEREFVAGIDRSSVSTYADSVKGRFTISRDNAKNTVYLQMNSLKPEDTAVYYCAVDEYGIWVGWVPYATFGMNYWGQGTQVTVSS", "polyreactivity (PSR sort gate)": "high polyreactivity"}
{"sequence": "QVQLVESGGGLVQAGGSLRLSCAASGRIFKYYAKGWYRQAPGKERELVAAISWSGGRTYYADSVKGRFTISRDNAKTTVYLQMNSLKPEDTAVYDCNAASLRYSYTLFDSWGQGTQVTVSS", "polyreactivity (PSR sort gate)": "high polyreactivity"}
{"sequence": "QLQLVESGGGLVQAGGSLRLSCAASGSTISGYAMGWYRQAPGKARELVARINSGGGRTYYADSVKGRFTISRDNAKNTVYLQMNSLKREDTEVYYFAAYSKPFPYVSTIRYYYWGQGTQVTVSS", "polyreactivity (PSR sort gate)": "high polyreactivity"}
{"sequence": "QVQLQDTGGGLVQAGGSPRLSCAASDNIFPDSVMCWYRQAPGKERELVATIGFGATTNYADSVKGRFTISRDNAKITVYLQMNSLKPEDSAVYYCAADPLNYEYFCYWGQGTQVTVRS", "polyreactivity (PSR sort gate)": "low polyreactivity"}
{"sequence": "QVQLVESGGGLVQAGGSLRLSCAASGLTYADYAMGWYRQAPGKDRQLVAAISRRGGSTYYADSVKGRFTISRDKAKNTVYLQMNSLKPEDTAVYYCAAYAYDVAFKRYKFDYWGQGTLVTVSS", "polyreactivity (PSR sort gate)": "high polyreactivity"}
